# Measurements from patent publication US20170051068A1 (Janssen / Centocor, published 2017).
# Where a chain is given by its changes, count along the chain named.
# B1: BCMB72 (BCMA×CD3 bispecific antibody, BCMB69 × CD3B219) (bispecific antibody, human IgG4 S228P, lambda, F234A L235A)
# heavy 1: EVQLVESGGGLVQPGGSLRLSCAASGFTFNTYAMNWVRQAPGKGLEWVARIRSKYNNYATYYAASVKGRFTISRDDSKNSLYLQMNSLKTEDTAVYYCARHGNFGNSYVSWFAYWGQGTLVTVSSASTKGPSVFPLAPCSRSTSESTAALGCLVKDYFPEPVTVSWNSGALTSGVHTFPAVLQSSGLYSLSSVVTVPSSSLGTKTYTCNVDHKPSNTKVDKRVESKYGPPCPPCPAPEAAGGPSVFLFPPKPKDTLMISRTPEVTCVVVDVSQEDPEVQFNWYVDGVEVHNAKTKPREEQFNSTYRVVSVLTVLHQDWLNGKEYKCKVSNKGLPSSIEKTISKAKGQPREPQVYTLPPSQEEMTKNQVSLTCLVKGFYPSDIAVEWESNGQPENNYKTTPPVLDSDGSFLLYSKLTVDKSRWQEGNVFSCSVMHEALHNHYTQKSLSLSLGK
# light 1: QTVVTQEPSLTVSPGGTVTLTCRSSTGAVTTSNYANWVQQKPGQAPRGLIGGTNKRAPGTPARFSGSLLGGKAALTLSGVQPEDEAEYYCALWYSNLWVFGGGTKLTVLGQPKAAPSVTLFPPSSEELQANKATLVCLISDFYPGAVTVAWKADSSPVKAGVETTTPSKQSNNKYAASSYLSLTPEQWKSHRSYSCQVTHEGSTVEKTVAPTECS
# heavy 2: not shown
# light 2: SYVLTQPPSVSVAPGQTARITCGGNNIGSKSVHWYQQPPGQAPVVVVYDDSDRPSGIPERFSGSNSGNTATLTISRVEAGDEAVYYCQVWDSSSDHVVFGGGTKLTVLGQPKAAPSVTLFPPSSEELQANKATLVCLISDFYPGAVTVAWKGDSSPVKAGVETTTPSKQSNNKYAASSYLSLTPEQWKSHRSYSCQVTHEGSTVEKTVAPTECS
# notes: IgG4 made by Fab arm exchange; first heavy/light pair is the CD3B219 arm, second pair the BCMB69 arm; also called B69 × B219; BCMB72.004
# B2: BC3B7 (BCMA×CD3 bispecific antibody, BCMB117 × CD3B219) (bispecific antibody, human IgG4 S228P, lambda, F234A L235A)
# heavy 1: B1 heavy 1
# light 1: B1 light 1
# heavy 2: not shown
# light 2: B1 light 2 with G152A
# notes: also called BC3BY; B117 × B219
# B3: BC3B9 (BCMA×CD3 bispecific antibody, BCMB128 × CD3B219) (bispecific antibody, human IgG4 S228P, lambda, F234A L235A)
# heavy 1: B1 heavy 1
# light 1: B1 light 1
# heavy 2: not shown
# light 2: B1 light 2 with G152A
# notes: IgG4 made by Fab arm exchange; also called B128 × B219
# B4: BC3B12 (BCMA×CD3 bispecific antibody, BCMB177 × CD3B219) (bispecific antibody, human IgG4 S228P, lambda, F234A L235A)
# heavy 1: B1 heavy 1
# light 1: B1 light 1
# heavy 2: not shown
# light 2: B1 light 2 with G152A
# notes: IgG4 made by Fab arm exchange; also called B177 × B219
# B5: BCMB69 (antibody, V domains shown)
# VH: QLQLQESGPGLVKPSETLSLTCTVSGGSISSGSYFWGWIRQPPGKGLEWIGSIYYSGITYYNPSLKSRVTISVDTSKNQFSLKLSSVTAADTAVYYCARHDGAVAGLFDYWGQGTLVTVSS
# VL: SYVLTQPPSVSVAPGQTARITCGGNNIGSKSVHWYQQPPGQAPVVVVYDDSDRPSGIPERFSGSNSGNTATLTISRVEAGDEAVYYCQVWDSSSDHVVFGGGTKLTVLG
# notes: also called BCBM69; antibody derived from the M2 hybridoma
# Key:
# [1] = biological target: T1, Fc-fusion cyno BCMA (in-house; Cat# BCMW6.001) (cyno, UniProt Q02223 1-54 (human entry)); assay: SPR, Fc-BCMA, two-state model, first complex
# T1 construct: also called Fc-BCMA Cy; cyno Fc-BCMA; not shown: Fc part
# [2] = biological target: T2, Recombinant mouse BCMA-Fc fusion protein (R&D Systems catalog #593-BC-050) (mouse, UniProt O88472 1-49); assay: SPR (Biacore T200), biotinylated Fc-BCMA Mouse on a streptavidin chip, BCMB72 as analyte, two-state binding model, Final Complex; column RANGE prints 62.0 - 82.9
# T2 construct: also called mBCMA-Fc; Fc-fusion mouse BCMA; not shown: Fc part of the bought fusion protein
# T2 chain: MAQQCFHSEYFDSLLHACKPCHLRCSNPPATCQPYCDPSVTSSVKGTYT
# Experimental: (§1) The binding affinities of anti-BCMA×CD3 bispecific antibody (BCMB72) with Fc-fusion BCMA proteins (human, cyno and mouse) were measured by Surface Plasmon Resonance (SPR) using a Biacore T200 system (GE Healthcare, NJ).
# (§2) No protein was immobilized on flow-cell 1 and was used as a reference surface. Binding kinetics experiments were performed at 25° C. in running buffer (PBS pH 7.4, 0.005% P20, 3 mM EDTA). BCMB72 was prepared in running buffer starting from 100 nM to 0.16 nM at 5-fold dilutions. These solutions were injected for 5 min (association phase) at 50 μL/min and the dissociation was monitored for 15 min by flowing running buffer. The chip surface was regenerated by short injections of glycine (pH 1.5) and running buffer at 100 μL/min. Binding kinetics analysis of BCMB72 interactions with Fc-BCMA was performed by double referencing of the data by subtracting the curves generated by buffer injection from the reference-subtracted curves for analyte injections. Global kinetics fitting of the sensorgrams was performed using a Two-State binding Model using Biacore T200 Evaluation Software (GE Healthcare, NJ). The binding affinity results from the Two-State binding model for different BCMA species are reported as First Complex (KD1) and Final Complex (KD) (FIG. 5).
# [3] = biological target: T1, Fc-fusion cyno BCMA (in-house; Cat# …); assay: SPR, Fc-BCMA, two-state model, step 1 (kon1); first step (kon1)
# [4] = biological target: T1, Fc-fusion cyno BCMA (in-house; Cat# …); assay: SPR, Fc-BCMA, two-state model, step 2
# [5] = biological target: T1, Fc-fusion cyno BCMA (in-house; Cat# …); assay: SPR (Biacore T200), biotinylated Fc-BCMA on streptavidin chip
# Experimental: as §1, §2
# [6] = biological target: T2, Recombinant mouse BCMA-Fc fusion …; assay: as above
# Experimental: as §1, §2
# [7] = biological target: T1, Fc-fusion cyno BCMA (in-house; Cat# …); assay: SPR (Biacore T200), biotinylated Fc-BCMA Cyno on a streptavidin chip, BCMB72 as analyte, two-state binding model, Final Complex; column RANGE prints 5.36 - 7.27
# Experimental: as §1, §2
# [8] = biological target: T3, Soluble human BCMA ECD (AB Biosciences, Catalog no. P011Xp) (human, UniProt Q02223 1-54); assay: cell-based or functional assay
# T3 sequence: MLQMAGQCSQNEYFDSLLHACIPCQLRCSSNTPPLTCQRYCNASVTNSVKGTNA
# [9] = biological target: T1, Fc-fusion cyno BCMA (in-house; Cat# …); assay: SPR, Fc-BCMA, two-state model, step 1 (koff1); first step (koff1)
# [10] = biological target: T1, Fc-fusion cyno BCMA (in-house; Cat# …); assay: SPR, Fc-BCMA, two-state model, Final KD; Final complex KD, two-state model
# [11] = biological target: T1, Fc-fusion cyno BCMA (in-house; Cat# …); assay: SPR, cyno Fc-BCMA
# [12] = biological target: T4, Recombinant human BCMA-Fc fusion protein (R&D Systems catalog #193-BC-050) (human, UniProt Q02223 1-54); assay: SPR, Fc-BCMA, two-state model, first complex
# T4 construct: also called hBCMA-Fc; Fc-BCMA Hu; not shown: Fc part of the bought fusion protein
# T4 sequence: T3 sequence
# [13] = biological target: T4, Recombinant human BCMA-Fc fusion …; assay: SPR, Fc-BCMA, two-state model, step 1 (kon1); first step (kon1)
# [14] = biological target: T4, Recombinant human BCMA-Fc fusion …; assay: SPR, Fc-BCMA, two-state model, step 2
# [15] = biological target: T4, Recombinant human BCMA-Fc fusion …; assay: SPR, Fc-BCMA, two-state model, step 1 (koff1); first step (koff1)
# [16] = biological target: T4, Recombinant human BCMA-Fc fusion …; assay: SPR, Fc-BCMA, two-state model, Final KD; Final complex KD, two-state model
# [17] = biological target: T4, Recombinant human BCMA-Fc fusion …; assay: SPR, human Fc-BCMA
# cyno BCMA on HEK cells = biological target: T5, cyno BCMA on HEK cells (cyno, UniProt Q02223 1-184 (human entry)); assay: flow cytometry, HEK cells expressing cyno BCMA
# T5 construct: also called HEK-expressing cyno BCMA
# T5 sequence (Q02223 other isoform, or with tags, fused parts or gaps): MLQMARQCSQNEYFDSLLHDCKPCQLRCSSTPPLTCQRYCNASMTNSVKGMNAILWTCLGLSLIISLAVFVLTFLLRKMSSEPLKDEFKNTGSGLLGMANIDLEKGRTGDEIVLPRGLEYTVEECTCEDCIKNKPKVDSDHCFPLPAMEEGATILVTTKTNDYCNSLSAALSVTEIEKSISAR
Binder,KD1 [1] [nM],Kd [2] [nM],kon [3] [M⁻¹ s⁻¹],koff2 [4] [s⁻¹],kon2 [4] [s⁻¹],fold of average KD compared to human BCMA [5] [fold],fold of average KD compared to human BCMA [6] [fold],Kd [7] [nM],Change of EC50 of cytotoxicity on H929 cells in the presence of soluble BCMA ECD [8] [fold],koff [9] [s⁻¹],Kd [10] [nM],fold tighter affinity than BCMB72 [11] [fold],KD1 [12] [nM],kon [13] [M⁻¹ s⁻¹],koff2 [14] [s⁻¹],kon2 [14] [s⁻¹],koff [15] [s⁻¹],Kd [16] [nM],fold weaker affinity than BCMB72 [17] [fold],binding result (cyno BCMA on HEK cells)
B1,3.87,72.4,1.26e+06,0.000785,0.00106,~36,~402,6.5,2,0.00483,1.65,,,,,,,,,
B2,3.04,,1.38e+06,0.000415,0.0015,,,,,0.00417,0.65,2,,,,,,,,
B3,1.94,,2.18e+06,0.000376,0.0016,,,,,0.00423,0.37,3,0.79,2.58e+06,0.000364,0.00506,0.00205,0.05,,
B4,5.65,,1.48e+06,0.000337,0.00146,,,,,0.00831,1.06,,0.72,1.78e+06,0.000557,0.00129,0.00129,0.22,2 to 3,
B5,,,,,,,,,,,,,,,,,,,,binds
